Experimental findings from patent US20130046081A1 (SHANGHAI BIOMABS PHARMACEUTICALS, published 2013) are described below.

The target of this assay is T1, Recombinant Human VEGF165 Protein (human, UniProt P15692-4 27-191).
T1 construct: Bought protein (R&D)
Briefly: SPR (Biacore T100), VEGF165 amine-coupled to the chip, antibody in solution. Here is the method:
Affinity constant of VEGF antibody was detected using Biacore T100 system (Biacore AB, Uppsala, Sweden). VEGF165 (R&D) was covalently linked to CMS biological sensor chips (Biacore) by amino-coupling. […] After each examination, they were washed with 5 μl of 50 mM hydrochloric acid aqueous solution at a flow rate of 3 μl/min so as to wash away the residual antibodies from the immobilized ligands. The binding curves were subjected to nonlinear regression analysis using BIAevalution software (T100 evalution version 2.0, Biacore).
A general note: Surface plasmon resonance follows binding to a sensor surface in real time, without labels.

T1 sequence (P15692 other isoform, or with tags, fused parts or gaps limits assumed): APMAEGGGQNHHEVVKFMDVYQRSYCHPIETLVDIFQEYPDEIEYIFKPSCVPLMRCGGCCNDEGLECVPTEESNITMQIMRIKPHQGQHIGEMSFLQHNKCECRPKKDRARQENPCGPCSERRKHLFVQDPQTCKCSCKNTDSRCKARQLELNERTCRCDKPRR

B1: fully human anti-VEGF antibody 11A7 (antibody, human IgG1, kappa, V domains shown)
VH: QVQLVQSGAEVKKPGASVKVSCKASGYTFTSYDINWVRQATGQGLEWMGWMNPNSGNTGYAQKFQGRVTMTRNTSISTAYMELSSLRSEDTAVYYCARGGYSSSWYYWYFDLWGRGTLVTVSS
VL: DIQMTQSPSSLSASVGDRVTITCRASQGIRNDLGWYQQKPGKAPKRLIYAASSLQSGVPSRFSGSGSGTEFTLTISSLQPEDFATYYCLQHNSYPPVYTFGQGTKLEIKR
notes: The genes carried a signal peptide at the 5' end; also called fully human antibody 11A7
One may read the Kd as the equilibrium constant for the complex coming apart. A word on the koff: it is the rate constant with which the complex falls apart. A word on the kon: it is a measure of how fast the partners come together. B1: the Kd is 0.86 nM, the koff came out at 7.1e-05 s⁻¹ and the on-rate constant (kon) is 82400 M⁻¹ s⁻¹.
